pKd: −log10 of the molar value.
Key:
[1] = molecular target: TrnC (Bacillus thuringiensis); test: MST; TrnC fluorescently labeled with RED-NHS; series of diluted TrnD (or TrnD(ΔRRE), or an equimolar mixture of TrnD with TrnA or TrnB) mixed with it in capillaries; Monolith instrument; aerobic conditions
[2] = molecular target: TrnD (Bacillus thuringiensis); test: MST; TrnD fluorescently labeled; TrnC R370A/K372A mutant as the other partner
[3] = molecular target: TrnC (Bacillus thuringiensis); test: pull-down; 6× His-tagged TrnC and non-tagged TrnD coexpressed in E. coli from a pRSFduet-1-derived construct; cell lysate purified on Ni-NTA; SDS-PAGE

Substance | pKd [1] | other results
equimolar mixture of TrnD and TrnA (complex) | 6.27 | –
TrnC R370A/K372A mutant (enzyme) | – | pKd [2]: 4.99
non-tagged TrnD (enzyme) | – | stoichiometry N [3]: 1
TrnD(ΔRRE) (enzyme) | 4.00 | –

— article PMC12093266, “Synergistic action of two radical SAM enzymes in the biosynthesis of thuricin CD, a two-component sactibiotic” (Chemical Science, 2025)
